Laboratory results from the nanobody polyreactivity screen of Harvey et al. (2022).

test: yeast display, Sf9 membrane polyspecificity reagent, FACS + sequencing; frameworks hold sequencing errors
Method in brief: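 Galactose-induced (36–48 hours) yeast carrying a synthetic nanobody display library were exposed to 10% biotinylated, detergent-solubilized Sf9 membrane reagent at 4 °C for 1 hour. FACS followed streptavidin microbead enrichment, using low and high (top ~1%) gates for expression (anti-HA) and reagent binding (streptavidin). Colony PCR, MiSeq 2 × 250 sequencing and CDR-length filtering followed. Labels for polyreactivity reflect the gate of origin.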

Row | Sequence | polyreactivity (PSR sort gate)
1 | QVQLVESGGGLVQAGGSLRLSCDASGSTFSYYAMGGYRQAPGKERELVAAISGRGGSTYYADSVKGRFTISRDNAKNTVYLQMNSLKPEDTAVYYCAKGRLYTAYGLYSWGQGTQVTVSS | high polyreactivity
2 | QVQLVESGGGLVQAGGSLRLSCDASGSTFVGNSMGWYRPAPGKERELVAALTQSGGNTFYADSVKGRFTISRDYAKNTVYLQINSLKPEDTAVYYCAATVSNGVKLDGPARVDLDYWGQGTQVTVSS | low polyreactivity
3 | QVQLVESGGGLVQAGGSLRLSCDASGSTFWYYAMGWYRQAPGKERELVASITSSGSTNYADSVKGRFTISRDNAKNTVYLQMNSLKPEDTAVYYCNRVSKYERLSRYGYYGYYYWGQGTQVTVSS | high polyreactivity
4 | QVQLVESGGGLVQAGGSLRLSCDASGSTFYYYAMGWYRQAPGKERELVDSISFSGGSTYYADSVKGRFTISRDNAKNTVYLQMNSLKPEDTAVYYCGYYYWGQGTQVTVSS | low polyreactivity
5 | QVQLVESGGGLVQAGGSLRLSCDASGSTSPGYAMGWYRQAPGKERELVAAITFRGTRTYYADSVKGRFTISRDNAKNTVYLQINSLKPEDTAVYYCNVVGYGPNRGRVDYWGQGTQVTVSS | high polyreactivity
6 | QVQLVESGGGLVQAGGSLRLSCDASGTTFVFNAMGWYRHAPGKERELVAAISFSSDTTHYADSVKGRFTISRDNAKNTVYLQMNSLKPEDTAVYYCAADFVGYARNWYYFCGQGTQVTVSS | low polyreactivity
7 | QVQLVESGGGLVQAGGSLRLSCDASGYIFNYAMGWYRQAPGKERELVPAISRRGGSTYYADSVKGRFTISRDNAKNTVYLQMNSLKPEDTSVYYCAADRFRRLHYWTYDYWGKGTQVTVSS | high polyreactivity
8 | QVQLVESGGGLVQAGGSLRLSCDATGSIISYNTMGWYRQAPGKERELVAAITWGGRTYYADSVKGRFTISRDNAKNTVYLQMNSLKPEDTAVYYCAKRIRGGAPTYDYWGQRTQVTVSS | low polyreactivity
9 | QVQLVESGGGLVQAGGSLRLSCDAYGSTFERYVMGWYCQRLGKKGSWLPVLNHNGGSTYYADSVKGRFTISRDNAKNTVYLQMNSLKPEVTAVYYCAPSFRTVLDDGYWGQGSQVTVSS | low polyreactivity
10 | QVQLVESGGGLVQAGGSLRLSCDGSGSIISAYTMEWYRQAPGKEREYVAAIRWSGDSTYYSDSVKGRFTISRDNAKNTVYLQMNSLKPEDTAVYYCAARDLWFPRYSSRYYYWGQGTQVTVSS | high polyreactivity
11 | QVQLVESGGGLVQAGGSLRLSCGAAGSIFAPYALGWYRQAPGKERELVAAISWTGGRTYYADSVKGRFTISRDNAKNTVYLQRNSLKPEDTAVYYCAAAYYGTRPYGYWGQGSQVTVSS | high polyreactivity
12 | QVQLVESGGGLVQAGGSLRLSCGASGIIFASNGMGWYRQAPGKERELVAAISSGGSTNYADSVKGRFTISRDNAKNTVYLQMNSLKPEDTSVYYCAADRWYREYDYWGQATQVTVSS | low polyreactivity
13 | QVQLVESGGGLVQAGGSLRLSCGASGITFVYYTMGWYRQAPGKERELVAAISKNGGSTYYADSVKGRFTISRDNAKNTVYLQMNSLKPEYTAFSYCAAEEGYRWVRYNYWGQGTQVTVSS | high polyreactivity
14 | QVQLVESGGGLVQAGGSLRLSCGASGRIFNSNAMGWYRQAPGKERELVAASSWSGGTSYYADSVKGRFTISRDNAKNTVYLQLNSLKPEDTAVYYCNAVGLHWWPGDYWGQGTQVTVSS | low polyreactivity
15 | QVQLVESGGGLVQAGGSLRLSCGASGRTFPVYAMGWYRQAPGKERELVADISDGGSTNYADSVKGRFTISRDNAKNTVDLQMNSLKPEDTAVYYCNATTFAFSPSLKGAYGYWGQGTQVTVST | low polyreactivity
16 | QVQLVESGGGLVQAGGSLRLSCGASGRTFQFYAMGWYRQAPGKERELVAAISRSSGSTTYADSVKGRFTISRDNAKNTVYLQMNSLKPEDTAVYYCAARRKGKARVPQYDYWGQGTQVTVSS | high polyreactivity
17 | QVQLVESGGGLVQAGGSLRLSCGASGRTFRRNAMGRYRQAPGKERELVAAIRWSSGSTYYADSVKGRFTISRDNAKNTVYLQMNSLKPEDTAVYYCAKRQWGGRESFDYWGQGTQVTVSS | low polyreactivity
18 | QVQLVESGGGLVQAGGSLRLSCGASGSTFYGYAMGWYRQAPGTEREVVAAISSGGSTYYADSVKGRFTISRDNAKNTVYLQMNSLKPEDTAVYYCDAVGYFWITNHKDYYWGQGTQVTVSS | high polyreactivity
19 | QVQLVESGGGLVQAGGSLRLSCGASGSTFYYYTMGWYRQAPGKERELVAAISFIGGSTYYADSVKGRFTISRDNAKNTVYLQMNSLKPEDTAVYYCAAEFYGLVSLSFSYDYWGQGTQVTVSS | low polyreactivity
20 | QVQLVESGGGLVQAGGSLRLSCHASGSTFTFNAMGWYRQAPGKERELVADITSGGRTNYADSVKGRFTISRDNAKNTVYLQMNSLKPEDTAVYYCAARWSAHEYPGYDSWGQGTQVTVSS | low polyreactivity
21 | QVQLVESGGGLVQAGGSLRLSCPASGFTFVTNAMGWYRQAPGKERELVAAISKSGDRTYYADSVKGRFTISRDNAKNTVYLQMNSLKPEDTAVYYCAAGNSNWGQGTQVTVSS | high polyreactivity
22 | QVQLVESGGGLVQAGGSLRLSCPASGLIFRSYAMGRYRQAPGKERELVARISIRGGSTYYADSVKGRFTISRDNAKNTVYLQMNSLKPEDTAVYYCAAVGYLGGYRYDYWGQGTQVTVSS | high polyreactivity

Row | Sequence | polyreactivity (PSR sort gate)
23 | QVQLVESGGGLVQAGGSLRLSCPASGRIFTGYAMGWYRQSPGKERELVASISDSGASTYYADSVKGRFTISRDNAKNTVYLQMNSLKPEDTAVYYCAADWTLDTSYGYYADDFWGQGTQVTVSS | low polyreactivity
24 | QVQLVESGGGLVQAGGSLRLSCPASGRTFRWYAMGWYRQAPGKERELVAAISQSGGSTYYAVSVKGRFTISRDNAKNTVYLQMNSLKPEDTAVYYFNAYPPYGGYAYGRGDYWGQGTQVTVSS | high polyreactivity
25 | QVQLVESGGGLVQAGGSLRLSCPASGRTIEGYAMGWYRQATGKERELVAAISRRGGSTYYADSVKGRFTISRDNAKNTVFLQMNSLKPEDTAVYYCAARDASTGAVRYYYWGQGTQVTVSS | high polyreactivity
26 | QVQLVESGGGLVQAGGSLRLSCPASGRTMVLNMGCYRHAPGKERELVATINSGGSTYYADSVKGRFTISRDNAKNTVYLQMNSLKPEDTAVYYCAVLSSDGKFDYWGQGTQVTVSS | low polyreactivity
27 | QVQLVESGGGLVQAGGSLRLSCPASGSIFDYYAMGWYRQPPGKEREMVAAINISGGDTYYADSVKGRFTISRDNAKNTVYLQMNSLKPEDTAVYYCAADWVTWWFSRVGWDYGYWGQGTQVTVSS | low polyreactivity
28 | QVQLVESGGGLVQAGGSLRLSCPASGSIFNKNAMGWYRQAPGKERELVAAISSGGSTYYADSVKGRFTISRDNAKNTVYLQMNSLKPEDTAVYYCARGASFYQKFYYWGQGTQVTVSS | high polyreactivity
29 | QVQLVESGGGLVQAGGSLRLSCPASGSIFPHYAMGWYRQAPGKERELVAAISRSGTSTYYADSVKGRFTISRDNAKNTVYLQMNSLKPEDTAVYYCNAYQVYTRTYGYWGQGTQVTVSS | high polyreactivity
30 | QVQLVESGGGLVQAGGSLRLSCPASGSIFSLNAMGWYRQAPGKERELVAGISWSGGSTYYADSVKGRFTISRDNAKNTVYLQMNSLKPEDTAVYYCAARRYYPYISSGPYYYWGQGTQVTVSS | high polyreactivity
31 | QVQLVESGGGLVQAGGSLRLSCPASGSILYYYTMGWYRQAPGKERELVAAITYSGGSSYYADSVKGRFTISRDNAKNTVYLQMNSLKPEDTAVYYCAAAHSNRGVRKWEPLYFWGQRTQVTVSS | low polyreactivity
32 | QVQLVESGGGLVQAGGSLRLSCPASGSTFARNAMGWSRQAPGKEREFVASIRWGGGSTYYADSVKARFTISRDNAKNTVYLQMNSLKAEDTAVYYCATRGWSKHLFGGYTQYYYWGQGTQVTVSS | high polyreactivity
33 | QVQLVESGGGLVQAGGSLRLSCPASGSTFVKNAMGWYRQAPGKERELVAAITARGGSTFYADSVKGRFTISRDNAKNTVYLQMISLTPEDTSVYYCADNGPRTYRLKDDYWGQGTQVTVSS | high polyreactivity
34 | QVQLVESGGGLVQAGGSLRLSCPAYGSTFGEYAMGWYRQKPGKERELVATITSAGSTYYADSVKGRFTISRDNAKNTVYLLMNSLKPEDTAVYYCAVDPISQGHMDYWGQGTQVTVSS | low polyreactivity
35 | QVQLVESGGGLVQAGGSLRLSCSASGFIFWYNAMGWYRQAPGKERELVAAITTAGSTNYADSVKGRFTISRDNAKNTVYLQMNSLKPEDTAVFYCNKVQLRNRYPYRYGFGDVGYWGQGTQVTVSS | low polyreactivity
36 | QVQLVESGGGLVQAGGSLRLSCSASGFTFFYYAMGWYRQAPGKERELVASISSGGSSTYYADSVKGRFTISRDNAKNTVYLQMNSLKPEDTAVYYFAATSRYRGSWYYYWGQGTQVTVSS | high polyreactivity
37 | QVQLVESGGGLVQAGGSLRLSCSASGFTFRVNALGWYRQAPGKERELVAAITYSGGSTYYADSVKGRFTISRDNAKNTVYLQMNSLNPEDTAVYYCAAGYFFPRLRFRNYAYGYWGQGTQVTVST | high polyreactivity
38 | QVQLVESGGGLVQAGGSLRLSCSASGFTFRWYTMGWYTQSPGNERELVAAINYSGGSTYYADSVKGRFTISRDNAKNTVYLQMNSLKPEDTAVYYCAAQIYFPGRRYDYWGQGTQVTVSS | high polyreactivity
39 | QVQLVESGGGLVQAGGSLRLSCSASGFTSRKNAMGWYRQAPGKERELVAAITQSSGRTYYADSVKGRFTISRDNAKNTVYLQMNSLKPEDTAVYYCAARRGGEDDYWGQGTQVTVSS | low polyreactivity
40 | QVQLVESGGGLVQAGGSLRLSCSASGIIFDSYVMGWYRQAPGKERELVAAISFRGGSTYYADSVKGRFTISRDNAKNTVYLQMNSLKPEDTAVYYCAAEGRGYTEYYWGQGTQVTVSS | high polyreactivity
41 | QVQLVESGGGLVQAGGSLRLSCSASGIIFGGNAMGWYRQAPGKERELVAGISSRGGSTYYADSVKGRFTISRDNAKNTVYLQMNSLKPEDTAVYYCAAVSSRRPGYEYYYWGQGTQVTVSS | high polyreactivity
42 | QVQLVESGGGLVQAGGSLRLSCSASGITFIYYMGWYIQAPGKERELVAAITWSGGSTYYADSVKGRFTISRDNAKNTVYLQMNSLKPEDTAVYYCAAVRRAEEYDYCGQGTQVTVSS | low polyreactivity
43 | QVQLVESGGGLVQAGGSLRLSCSASGRIFSANAMGWYRQAPVKERELVATISTGGGRTYYADSVKGRFTISRDNAKNTVYLQMNSLKPEDTAVYYCNATRNYARVRYYYWGQGNQVTVSS | high polyreactivity
